US20130004493A1

Key:
[1] = target: Focal adhesion kinase (FAK), human (human) (UniProt Q05397); test: immunoprecipitation from ARPE-19 and ARPE-19/EMP2 lysates, Western blot densitometry
[2] = target: Focal adhesion kinase (FAK), human (human) (UniProt Q05397); test: co-immunoprecipitation, ratio of co-immunoprecipitate to cognate immunoprecipitate, ARPE-19/EMP2 cells
[3] = target: Focal adhesion kinase (FAK), human (human) (UniProt Q05397); test: cell-based or functional assay
[4] = target: Focal adhesion kinase (FAK), human (human) (UniProt Q05397); test: co-immunoprecipitation, Western blot for FAK, ARPE-19 cells (figure legend)
[5] = target: Focal adhesion kinase (FAK), human (human) (UniProt Q05397); test: co-immunoprecipitation, ratio of co-immunoprecipitate to cognate immunoprecipitate, ARPE-19 cells
[6] = target: Focal adhesion kinase (FAK), human (human) (UniProt Q05397); test: co-immunoprecipitation with anti-EMP2 antibody, Western blot densitometry, ARPE-19/EMP2 cells
[7] = target: Focal adhesion kinase (FAK), human (human) (UniProt Q05397); test: co-immunoprecipitation with anti-EMP2 antibody, Western blot densitometry, ARPE-19 cells

Sequence of Focal adhesion kinase (FAK), human (human) (Q05397 2-1052): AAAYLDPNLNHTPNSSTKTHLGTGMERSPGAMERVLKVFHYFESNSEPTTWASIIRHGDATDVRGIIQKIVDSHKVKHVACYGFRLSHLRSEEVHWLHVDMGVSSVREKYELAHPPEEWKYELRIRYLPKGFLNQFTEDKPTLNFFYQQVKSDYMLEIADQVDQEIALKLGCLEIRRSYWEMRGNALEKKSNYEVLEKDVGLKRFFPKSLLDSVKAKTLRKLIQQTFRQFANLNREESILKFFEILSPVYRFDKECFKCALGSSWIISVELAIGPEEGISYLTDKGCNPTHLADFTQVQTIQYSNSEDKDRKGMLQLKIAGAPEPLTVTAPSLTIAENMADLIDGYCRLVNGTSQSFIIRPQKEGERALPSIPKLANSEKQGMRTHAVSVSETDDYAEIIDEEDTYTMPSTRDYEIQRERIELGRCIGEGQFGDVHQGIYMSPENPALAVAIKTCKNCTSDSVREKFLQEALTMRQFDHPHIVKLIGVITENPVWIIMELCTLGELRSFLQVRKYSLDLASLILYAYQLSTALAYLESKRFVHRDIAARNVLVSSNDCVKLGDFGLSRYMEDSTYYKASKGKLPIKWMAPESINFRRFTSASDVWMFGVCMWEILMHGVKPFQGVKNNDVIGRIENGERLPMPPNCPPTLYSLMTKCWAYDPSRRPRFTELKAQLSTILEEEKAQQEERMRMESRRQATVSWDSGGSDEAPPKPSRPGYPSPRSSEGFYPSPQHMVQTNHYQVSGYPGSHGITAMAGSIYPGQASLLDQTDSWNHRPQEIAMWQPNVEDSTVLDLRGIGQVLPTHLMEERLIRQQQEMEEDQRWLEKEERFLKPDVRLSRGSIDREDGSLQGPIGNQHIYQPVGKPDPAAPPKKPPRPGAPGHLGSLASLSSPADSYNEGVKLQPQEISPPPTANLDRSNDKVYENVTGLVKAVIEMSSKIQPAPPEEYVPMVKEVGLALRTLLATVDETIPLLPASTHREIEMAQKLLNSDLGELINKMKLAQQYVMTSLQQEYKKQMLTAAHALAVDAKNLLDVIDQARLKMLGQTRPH

| Substance | cognate immunoprecipitation efficiency [1] [%] | percent of total FAK associated with EMP2 [2] [%] | percent of FAK at the cell surface contacting the glass slide colocalized with EMP2 (confocal microscopy, ARPE-19/EMP2 cells) [3] [%] | percent of FAK at the cell surface contacting the glass slide colocalized with EMP2 (confocal microscopy, ARPE-19 cells) [3] [%] | percent of total FAK co-immunoprecipitated by EMP2 [4] [%] | percent of total FAK associated with EMP2 [5] [%] | level of FAK in the EMP2 immunoprecipitates [6] [%] | level of FAK in the EMP2 immunoprecipitates [7] [%] |
| --- | --- | --- | --- | --- | --- | --- | --- | --- |
| Anti-FAK polyclonal antibody (Santa Cruz Biotechnology, clone C-20) | 50 to 60 | – | – | – | – | – | – | – |
| Epithelial membrane protein 2 (EMP2), human (from UniProt P54851 1-167) | – | 30 | 96 | 68 | 25 | 24 | 15 | 12 |
